Test [1] has as its target IgG. The experiment in a line: column chromatography, ligand coupled to agarose, IgG loaded at 1 mg/ml, before alkali treatment.
Test [2] addresses IgG. The experiment in a line: SPR, Biacore 4000; IgG amine-coupled to CM5 chip, C domain construct as analyte. (In general: In SPR one partner is held on a chip, and binding of the other changes the refractive index at the surface.)

As for (Native C-domain) 4, the Initial IgG capability (dynamic binding capacity at 10% breakthrough) with IgG [1] was found to be 165 mg/mL. The substance also came in with a Kd with IgG [2] of 7.18 nM.

By Kd is commonly meant the equilibrium constant for the complex coming apart.

The values are drawn from patent publication US20250154208A1.
